Results as given in the supplement of paper PMC10126150.
± gives the standard deviation of the averaged measurements.

System: ATP
Experiment: switch fluorescence ratio, 500 uM ATP over buffer (Cy3 cluster intensity, sum of 5 cycles each) (fold (ratio)); higher = stronger signal-on switching upon ATP binding; sequences stand for … in TCGTCGGCAGCGTCAGATGTGTATAAGAGACAGTTTTTTTTTTTTTTTTTTTTTTTTT…TC
Settings: aptamer strand: ATP DNA aptamer (quencher-CACCTGGGGGAGTATTGCGGAGGAAGG + anchor), 100 nM annealed; ATP concentration: 500 uM
Method in brief: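 Cy3-labelled switching-strand clusters on a modified Illumina MiSeq flow-cell were annealed to 100 nM quencher-labelled ATP aptamer and imaged first in selection buffer, then after 15 min with 500 uM ATP at 22 °C. NaOH stripping and re-annealing separated each of five buffer/ATP cycles, and clusters outside 100-1000 RFU were excluded. The fluorescence ratio sums target-cycle Cy3 intensity over buffer-cycle Cy3 intensity per cluster and averages it per switch-domain sequence.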
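Note: ATP exposure 15 min at 22 °C before imaging.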

GATTTGATTG
switch fluorescence ratio: 1.002 ± 0.0033

GATTTGCTAG
switch fluorescence ratio: 0.997 ± 0.023

GATTTTCACT
switch fluorescence ratio: 0.9903 ± 0.0092

GATTTTCCTT
switch fluorescence ratio: 1.01 ± 0.027

GATTTTGAGC
switch fluorescence ratio: 0.9986 ± 0.0048

GATTTTGCAT
switch fluorescence ratio: 1 ± 0.028

GATTTTGGCT
switch fluorescence ratio: 0.9969 ± 0.0019

GATTTTTACT
switch fluorescence ratio: 1.02 ± 0.024

GATTTTTATA
switch fluorescence ratio: 0.969 ± 0.028

GATTTTTATG
switch fluorescence ratio: 0.977 ± 0.011

GATTTTTGAG
switch fluorescence ratio: 0.99 ± 0.017

GATTTTTGGA
switch fluorescence ratio: 0.968 ± 0.03

GATTTTTGGG
switch fluorescence ratio: 1.01 ± 0.047

GATTTTTGTT
switch fluorescence ratio: 1.01 ± 0.034

GATTTTTTGA
switch fluorescence ratio: 1.01 ± 0.011

GCAAAAAAAT
switch fluorescence ratio: 1.04 ± 0.025

GCAAAAATGT
switch fluorescence ratio: 1 ± 0.029

GCAAAAGGGG
switch fluorescence ratio: 0.977 ± 0.027

GCAAAGAGGG
switch fluorescence ratio: 1.04 ± 0.012

GCAAAGTCTG
switch fluorescence ratio: 0.984 ± 0.046

GCAAATAAGT
switch fluorescence ratio: 1.02 ± 0.038

GCAAATATTG
switch fluorescence ratio: 1.01 ± 0.018

GCAAGACAAG
switch fluorescence ratio: 1.05 ± 0.036

GCAAGATTTC
switch fluorescence ratio: 1.04 ± 0.013

GCAAGGGGTG
switch fluorescence ratio: 1.1 ± 0.065

GCAAGTTCAA
switch fluorescence ratio: 1.01 ± 0.031

GCAATAATTT
switch fluorescence ratio: 2.83 ± 0.52

GCAATAGACT
switch fluorescence ratio: 1.51 ± 0.04

GCAATATGGG
switch fluorescence ratio: 1.84 ± 0.2

GCAATCAATA
switch fluorescence ratio: 1.02 ± 0.015

GCAATCAGAA
switch fluorescence ratio: 1.04 ± 0.035

GCAATCGAGT
switch fluorescence ratio: 1.6 ± 0.04

GCAATCTGGT
switch fluorescence ratio: 1.11 ± 0.026

GCAATTCCCG
switch fluorescence ratio: 2.17 ± 0.049

GCACCAAAAG
switch fluorescence ratio: 0.973 ± 0.028

GCACCAAGAA
switch fluorescence ratio: 1.03 ± 0.014

GCACGCGGCT
switch fluorescence ratio: 1.02 ± 0.019

GCACGGGCAT
switch fluorescence ratio: 1.01 ± 0.035

GCACGGGGAT
switch fluorescence ratio: 1.02 ± 0.033

GCACGTCGAA
switch fluorescence ratio: 1.08 ± 0.032

GCACTAGGGG
switch fluorescence ratio: 1.09 ± 0.015

GCACTATAGG
switch fluorescence ratio: 0.999 ± 0.011

GCACTTTTTG
switch fluorescence ratio: 0.99 ± 0.049

GCAGAAGTAC
switch fluorescence ratio: 2.37 ± 0.075

GCAGAGGAAC
switch fluorescence ratio: 1.03 ± 0.012

GCAGAGTGGA
switch fluorescence ratio: 0.9976 ± 0.003

GCAGATCGGT
switch fluorescence ratio: 0.967 ± 0.019

GCAGATCGTG
switch fluorescence ratio: 1.02 ± 0.026

GCAGATTACG
switch fluorescence ratio: 1.01 ± 0.058

GCAGCAAGCG
switch fluorescence ratio: 1.64 ± 0.028

GCAGCAGACG
switch fluorescence ratio: 1.2 ± 0.076

GCAGCAGCTT
switch fluorescence ratio: 1.01 ± 0.039

GCAGCCAAGC
switch fluorescence ratio: 1.14 ± 0.028

GCAGCTAGTA
switch fluorescence ratio: 1.044 ± 0.0045

GCAGCTGGTA
switch fluorescence ratio: 1.05 ± 0.024

GCAGCTGTAT
switch fluorescence ratio: 1.08 ± 0.014

GCAGGAATGT
switch fluorescence ratio: 1.0036 ± 0.00065

GCAGGAGCGG
switch fluorescence ratio: 0.998 ± 0.0094

GCAGGCGGGC
switch fluorescence ratio: 0.991 ± 0.014

GCAGGCGTCA
switch fluorescence ratio: 1.04 ± 0.015

GCAGGCGTTG
switch fluorescence ratio: 0.995 ± 0.013

GCAGGGAGTT
switch fluorescence ratio: 0.966 ± 0.029

GCAGGGGGAG
switch fluorescence ratio: 1.02 ± 0.0081

GCAGGGGTTA
switch fluorescence ratio: 1.28 ± 0.43

GCAGGGGTTG
switch fluorescence ratio: 1.03 ± 0.071

GCAGGTATTG
switch fluorescence ratio: 1.02 ± 0.012

GCAGGTGTGC
switch fluorescence ratio: 1.13 ± 0.082

GCAGTACGGC
switch fluorescence ratio: 1.05 ± 0.033

GCAGTCGCAA
switch fluorescence ratio: 1.1 ± 0.043

GCAGTCTGTG
switch fluorescence ratio: 0.98 ± 0.03

GCAGTGGGGT
switch fluorescence ratio: 1.01 ± 0.022

GCAGTGGGTC
switch fluorescence ratio: 0.995 ± 0.0057

GCAGTTATTT
switch fluorescence ratio: 0.966 ± 0.026

GCAGTTGGGG
switch fluorescence ratio: 0.998 ± 0.032

GCATAAATAG
switch fluorescence ratio: 1.02 ± 0.018

GCATAACATT
switch fluorescence ratio: 1.01 ± 0.014

GCATAAGAAA
switch fluorescence ratio: 1.03 ± 0.018

GCATAAGCTC
switch fluorescence ratio: 1.06 ± 0.062

GCATAAGGGC
switch fluorescence ratio: 0.959 ± 0.033

GCATATCTGT
switch fluorescence ratio: 1.0296 ± 0.00023

GCATCAGGAG
switch fluorescence ratio: 1.05 ± 0.021

GCATCCGGGA
switch fluorescence ratio: 0.956 ± 0.039

GCATGAAGGT
switch fluorescence ratio: 1 ± 0.014

GCATGAGCGG
switch fluorescence ratio: 1.01 ± 0.013

GCATGAGGAT
switch fluorescence ratio: 1.01 ± 0.06

GCATGAGGGA
switch fluorescence ratio: 0.993 ± 0.019

GCATGATCAA
switch fluorescence ratio: 0.997 ± 0.031

GCATGATGGG
switch fluorescence ratio: 0.986 ± 0.043

GCATGCGCTG
switch fluorescence ratio: 0.982 ± 0.015

GCATGCTGGT
switch fluorescence ratio: 1.01 ± 0.024

GCATGGCACC
switch fluorescence ratio: 1.01 ± 0.025

GCATGGGGAC
switch fluorescence ratio: 1.05 ± 0.081

GCATGGTTGG
switch fluorescence ratio: 0.976 ± 0.034

GCATGGTTTT
switch fluorescence ratio: 0.975 ± 0.029

GCATTAATG
switch fluorescence ratio: 1.03 ± 0.021

GCATTAGCTT
switch fluorescence ratio: 1.007 ± 0.01

GCATTAGGGG
switch fluorescence ratio: 1.01 ± 0.016

GCATTAGGTA
switch fluorescence ratio: 0.984 ± 0.024

GCATTGATGT
switch fluorescence ratio: 1.02 ± 0.017

GCATTGGTTC
switch fluorescence ratio: 1.02 ± 0.042

GCATTGTACG
switch fluorescence ratio: 0.991 ± 0.03

GCATTGTGCC
switch fluorescence ratio: 1.02 ± 0.022

GCATTTGAAG
switch fluorescence ratio: 0.953 ± 0.05

GCATTTGGGG
switch fluorescence ratio: 0.9686 ± 0.0032

GCATTTGTAC
switch fluorescence ratio: 1.266 ± 0.0026

GCATTTTTAT
switch fluorescence ratio: 1.02 ± 0.037

GCCAAGTTCG
switch fluorescence ratio: 0.9787 ± 0.0072

GCCACATTCA
switch fluorescence ratio: 0.991 ± 0.017

GCCACGGCGA
switch fluorescence ratio: 1.02 ± 0.021

GCCAGATGCG
switch fluorescence ratio: 1.05 ± 0.064

GCCAGATTAA
switch fluorescence ratio: 0.976 ± 0.014

GCCAGGCACT
switch fluorescence ratio: 1.005 ± 0.0077

GCCAGGGGGA
switch fluorescence ratio: 1.09 ± 0.12

GCCAGTAAGT
switch fluorescence ratio: 0.994 ± 0.039

GCCAGTAATA
switch fluorescence ratio: 1.1 ± 0.034

GCCAGTTGTC
switch fluorescence ratio: 0.998 ± 0.041

GCCATGGCGT
switch fluorescence ratio: 1.02 ± 0.031

GCCATGTCGA
switch fluorescence ratio: 0.9921 ± 0.0061

GCCATTGGGG
switch fluorescence ratio: 0.9872 ± 0.0012

GCCCAACTGT
switch fluorescence ratio: 1 ± 0.036

GCCCACGCTG
switch fluorescence ratio: 1.02 ± 0.011

GCCCCATTTT
switch fluorescence ratio: 1.01 ± 0.024

GCCCCTTAGG
switch fluorescence ratio: 1.1 ± 0.045

GCCCTATGTG
switch fluorescence ratio: 1.25 ± 0.034

GCCCTGGGGC
switch fluorescence ratio: 1.013 ± 0.0075

GCCCTGTATT
switch fluorescence ratio: 1.015 ± 0.0048

GCCCTTTTAA
switch fluorescence ratio: 0.982 ± 0.016

GCCGAACCTC
switch fluorescence ratio: 1.28 ± 0.037

GCCGAAGTCG
switch fluorescence ratio: 1.02 ± 0.025

GCCGACGGTG
switch fluorescence ratio: 1 ± 0.019

GCCGCGGGGT
switch fluorescence ratio: 1 ± 0.0017

GCCGCGTATA
switch fluorescence ratio: 1.43 ± 0.058

GCCGCGTATC
switch fluorescence ratio: 1.65 ± 0.12

GCCGCTGATG
switch fluorescence ratio: 0.982 ± 0.028

GCCGCTGGTG
switch fluorescence ratio: 1.22 ± 0.077

GCCGGAGGGA
switch fluorescence ratio: 0.989 ± 0.038

GCCGGCACTG
switch fluorescence ratio: 1.002 ± 0.0064

GCCGGCTTTG
switch fluorescence ratio: 1.03 ± 0.026

GCCGGGATGT
switch fluorescence ratio: 1.02 ± 0.052

GCCGGGCAGC
switch fluorescence ratio: 0.98 ± 0.035

GCCGGGGAGG
switch fluorescence ratio: 0.984 ± 0.038

GCCGGGGCAG
switch fluorescence ratio: 1.01 ± 0.033

GCCGGGGGGG
switch fluorescence ratio: 1.02 ± 0.02

GCCGGGGGTG
switch fluorescence ratio: 1.04 ± 0.023

GCCGGGTTAT
switch fluorescence ratio: 1.03 ± 0.079

GCCGTAACGG
switch fluorescence ratio: 0.982 ± 0.014

GCCGTAATGG
switch fluorescence ratio: 1.24 ± 0.089

GCCGTAATTA
switch fluorescence ratio: 1.09 ± 0.017

GCCGTCTGTG
switch fluorescence ratio: 0.9728 ± 0.0039

GCCGTGTGAT
switch fluorescence ratio: 0.986 ± 0.0083

GCCGTTGGGG
switch fluorescence ratio: 0.99 ± 0.031

GCCGTTTGTG
switch fluorescence ratio: 1.008 ± 0.0024

GCCGTTTTTT
switch fluorescence ratio: 0.97 ± 0.04
